Results from patent publication US20250043028A1 (Hoffmann-La Roche, published 2025).

B1: “1+1 IgG Crossfab”; VL/VH exchange (LC007/V9) (anti-MCSP/anti-huCD3) (bispecific antibody)
chain 1: DIVLTQSPSSLSASLGDRVTISCSASQGIRNYLNWYQQRPDGTVKLLIYYTSSLHSGVPSRFSGSGSGTDYSLTISNLEPEDIATYYCQQYSKLPWTFGGGTKLEIKRTVAAPSVFIFPPSDEQLKSGTASVVCLLNNFYPREAKVQWKVDNALQSGNSQESVTEQDSKDSTYSLSSTLTLSKADYEKHKVYACEVTHQGLSSPVTKSFNRGEC
chain 2: DIQMTQSPSSLSASVGDRVTITCRASQDIRNYLNWYQQKPGKAPKLLIYYTSRLESGVPSRFSGSGSGTDYTLTISSLQPEDFATYYCQQGNTLPWTFGQGTKVEIKSSASTKGPSVFPLAPSSKSTSGGTAALGCLVKDYFPEPVTVSWNSGALTSGVHTFPAVLQSSGLYSLSSVVTVPSSSLGTQTYICNVNHKPSNTKVDKKVEPKSCGGGGSGGGGSEVQLQESGPGLVKPSQSLSLTCSVTGYSITSGYYWNWIRQFPGNKLEWMGYITYDGSNNYNPSLKNRISITRDTSKNQFFLKLNSVTTEDTATYYCADFDYWGQGTTLTVSSASTKGPSVFPLAPSSKSTSGGTAALGCLVKDYFPEPVTVSWNSGALTSGVHTFPAVLQSSGLYSLSSVVTVPSSSLGTQTYICNVNHKPSNTKVDKKVEPKSCDKTHTCPPCPAPEAAGGPSVFLFPPKPKDTLMISRTPEVTCVVVDVSHEDPEVKFNWYVDGVEVHNAKTKPREEQYNSTYRVVSVLTVLHQDWLNGKEYKCKVSNKALGAPIEKTISKAKGQPREPQVCTLPPSRDELTKNQVSLSCAVKGFYPSDIAVEWESNGQPENNYKTTPPVLDSDGSFFLVSKLTVDKSRWQQGNVFSCSVMHEALHNHYTQKSLSLSPGK
chain 3: EVQLVESGGGLVQPGGSLRLSCAASGYSFTGYTMNWVRQAPGKGLEWVALINPYKGVSTYNQKFKDRFTISVDKSKNTAYLQMNSLRAEDTAVYYCARSGYYGDSDWYFDVWGQGTLVTVSSASVAAPSVFIFPPSDEQLKSGTASVVCLLNNFYPREAKVQWKVDNALQSGNSQESVTEQDSKDSTYSLSSTLTLSKADYEKHKVYACEVTHQGLSSPVTKSFNRGEC
chain 4: not shown
B2: “2+1 IgG Crossfab”; CL/CH1 exchange (LC007/anti-CD3) (anti-MCSP/anti-huCD3) (bispecific antibody)
chain 1: B1 chain 1
chain 2: EVQLQESGPGLVKPSQSLSLTCSVTGYSITSGYYWNWIRQFPGNKLEWMGYITYDGSNNYNPSLKNRISITRDTSKNQFFLKLNSVTTEDTATYYCADFDYWGQGTTLTVSSASTKGPSVFPLAPSSKSTSGGTAALGCLVKDYFPEPVTVSWNSGALTSGVHTFPAVLQSSGLYSLSSVVTVPSSSLGTQTYICNVNHKPSNTKVDKKVEPKSCDKTHTCPPCPAPEAAGGPSVFLFPPKPKDTLMISRTPEVTCVVVDVSHEDPEVKFNWYVDGVEVHNAKTKPREEQYNSTYRVVSVLTVLHQDWLNGKEYKCKVSNKALGAPIEKTISKAKGQPREPQVCTLPPSRDELTKNQVSLSCAVKGFYPSDIAVEWESNGQPENNYKTTPPVLDSDGSFFLVSKLTVDKSRWQQGNVFSCSVMHEALHNHYTQKSLSLSPGK
chain 3: QAVVTQESALTTSPGETVTLTCRSSTGAVTTSNYANWVQEKPDHLFTGLIGGTNKRAPGVPARFSGSLIGDKAALTITGAQTEDEAIYFCALWYSNLWVFGGGTKLTVLSSASTKGPSVFPLAPSSKSTSGGTAALGCLVKDYFPEPVTVSWNSGALTSGVHTFPAVLQSSGLYSLSSVVTVPSSSLGTQTYICNVNHKPSNTKVDKKVEPKSC
chain 4: not shown
B3: “2+1 IgG Crossfab”; VL/VH exchange (M4-3 ML2/V9) (anti-MCSP/anti-huCD3) (bispecific antibody)
chain 1: B1 chain 3
chain 2: not shown
chain 3: not shown
chain 4: QVQLQESGPGLVKPSQTLSLTCTVSGGSITSGYYWNWIRQHPGKGLEWIGYITYDGSNNYNPSLKSRVTISRDTSKNQFSLKLSSVTAADTAVYYCADFDYWGQGTLVTVSSASTKGPSVFPLAPSSKSTSGGTAALGCLVKDYFPEPVTVSWNSGALTSGVHTFPAVLQSSGLYSLSSVVTVPSSSLGTQTYICNVNHKPSNTKVDKKVEPKSCDKTHTCPPCPAPEAAGGPSVFLFPPKPKDTLMISRTPEVTCVVVDVSHEDPEVKFNWYVDGVEVHNAKTKPREEQYNSTYRVVSVLTVLHQDWLNGKEYKCKVSNKALGAPIEKTISKAKGQPREPQVCTLPPSRDELTKNQVSLSCAVKGFYPSDIAVEWESNGQPENNYKTTPPVLDSDGSFFLVSKLTVDKSRWQQGNVFSCSVMHEALHNHYTQKSLSLSPGK
B4: “2+1 IgG Crossfab, inverted”; CL/CH1 exchange (LC007/V9) (anti-MCSP/anti-huCD3) (bispecific antibody)
chain 1: B1 chain 1
chain 2: B2 chain 2
chain 3: DIQMTQSPSSLSASVGDRVTITCRASQDIRNYLNWYQQKPGKAPKLLIYYTSRLESGVPSRFSGSGSGTDYTLTISSLQPEDFATYYCQQGNTLPWTFGQGTKVEIKSSASTKGPSVFPLAPSSKSTSGGTAALGCLVKDYFPEPVTVSWNSGALTSGVHTFPAVLQSSGLYSLSSVVTVPSSSLGTQTYICNVNHKPSNTKVDKKVEPKSC
chain 4: not shown
B5: “2+1 IgG Crossfab, inverted”; CL/CH1 exchange (LC007/anti-CD3) (anti-MCSP/anti-huCD3) (bispecific antibody)
chain 1: B1 chain 1
chain 2: B2 chain 2
chain 3: B2 chain 3
chain 4: not shown
B6: “1+1 CrossMab”; CL/CH1 exchange (LC007/V9) (anti-MCSP/anti-huCD3) (bispecific antibody)
chain 1: B1 chain 1
chain 2: B2 chain 2
chain 3: B4 chain 3
chain 4: not shown
B7: “1+1 IgG Crossfab light chain (LC) fusion” (CH1A1A/V9) (anti-CEA/anti-huCD3) (bispecific antibody)
chain 1: B4 chain 3
chain 2: DIQMTQSPSSLSASVGDRVTITCKASAAVGTYVAWYQQKPGKAPKLLIYSASYRKRGVPSRFSGSGSGTDFTLTISSLQPEDFATYYCHQYYTYPLFTFGQGTKLEIKRTVAAPSVFIFPPSDEQLKSGTASVVCLLNNFYPREAKVQWKVDNALQSGNSQESVTEQDSKDSTYSLSSTLTLSKADYEKHKVYACEVTHQGLSSPVTKSFNRGECGGGGSGGGGSGGGGSGGGGSEVQLVESGGGLVQPGGSLRLSCAASGYSFTGYTMNWVRQAPGKGLEWVALINPYKGVSTYNQKFKDRFTISVDKSKNTAYLQMNSLRAEDTAVYYCARSGYYGDSDWYFDVWGQGTLVTVSSASVAAPSVFIFPPSDEQLKSGTASVVCLLNNFYPREAKVQWKVDNALQSGNSQESVTEQDSKDSTYSLSSTLTLSKADYEKHKVYACEVTHQGLSSPVTKSFNRGEC
chain 3: not shown
chain 4: DKTHTCPPCPAPEAAGGPSVFLFPPKPKDTLMISRTPEVTCVVVDVSHEDPEVKFNWYVDGVEVHNAKTKPREEQYNSTYRVVSVLTVLHQDWLNGKEYKCKVSNKALGAPIEKTISKAKGQPREPQVCTLPPSRDELTKNQVSLSCAVKGFYPSDIAVEWESNGQPENNYKTTPPVLDSDGSFFLVSKLTVDKSRWQQGNVFSCSVMHEALHNHYTQKSLSLSPGK
B8: “2+1 IgG Crossfab”; CL/CH1 exchange (M4-3 ML2/V9) (anti-MCSP/anti-huCD3) (bispecific antibody)
chain 1: B4 chain 3
chain 2: not shown
chain 3: B3 chain 4
chain 4: not shown

Tests used:
[1] = biological target: T1, human MCSP expressed on tumor cells (Colo-38, WM266-4, MV-3) (human, UniProt Q6UVK1 30-2322); test: cell-based or functional assay
T1 sequence (Q6UVK1 30-2322): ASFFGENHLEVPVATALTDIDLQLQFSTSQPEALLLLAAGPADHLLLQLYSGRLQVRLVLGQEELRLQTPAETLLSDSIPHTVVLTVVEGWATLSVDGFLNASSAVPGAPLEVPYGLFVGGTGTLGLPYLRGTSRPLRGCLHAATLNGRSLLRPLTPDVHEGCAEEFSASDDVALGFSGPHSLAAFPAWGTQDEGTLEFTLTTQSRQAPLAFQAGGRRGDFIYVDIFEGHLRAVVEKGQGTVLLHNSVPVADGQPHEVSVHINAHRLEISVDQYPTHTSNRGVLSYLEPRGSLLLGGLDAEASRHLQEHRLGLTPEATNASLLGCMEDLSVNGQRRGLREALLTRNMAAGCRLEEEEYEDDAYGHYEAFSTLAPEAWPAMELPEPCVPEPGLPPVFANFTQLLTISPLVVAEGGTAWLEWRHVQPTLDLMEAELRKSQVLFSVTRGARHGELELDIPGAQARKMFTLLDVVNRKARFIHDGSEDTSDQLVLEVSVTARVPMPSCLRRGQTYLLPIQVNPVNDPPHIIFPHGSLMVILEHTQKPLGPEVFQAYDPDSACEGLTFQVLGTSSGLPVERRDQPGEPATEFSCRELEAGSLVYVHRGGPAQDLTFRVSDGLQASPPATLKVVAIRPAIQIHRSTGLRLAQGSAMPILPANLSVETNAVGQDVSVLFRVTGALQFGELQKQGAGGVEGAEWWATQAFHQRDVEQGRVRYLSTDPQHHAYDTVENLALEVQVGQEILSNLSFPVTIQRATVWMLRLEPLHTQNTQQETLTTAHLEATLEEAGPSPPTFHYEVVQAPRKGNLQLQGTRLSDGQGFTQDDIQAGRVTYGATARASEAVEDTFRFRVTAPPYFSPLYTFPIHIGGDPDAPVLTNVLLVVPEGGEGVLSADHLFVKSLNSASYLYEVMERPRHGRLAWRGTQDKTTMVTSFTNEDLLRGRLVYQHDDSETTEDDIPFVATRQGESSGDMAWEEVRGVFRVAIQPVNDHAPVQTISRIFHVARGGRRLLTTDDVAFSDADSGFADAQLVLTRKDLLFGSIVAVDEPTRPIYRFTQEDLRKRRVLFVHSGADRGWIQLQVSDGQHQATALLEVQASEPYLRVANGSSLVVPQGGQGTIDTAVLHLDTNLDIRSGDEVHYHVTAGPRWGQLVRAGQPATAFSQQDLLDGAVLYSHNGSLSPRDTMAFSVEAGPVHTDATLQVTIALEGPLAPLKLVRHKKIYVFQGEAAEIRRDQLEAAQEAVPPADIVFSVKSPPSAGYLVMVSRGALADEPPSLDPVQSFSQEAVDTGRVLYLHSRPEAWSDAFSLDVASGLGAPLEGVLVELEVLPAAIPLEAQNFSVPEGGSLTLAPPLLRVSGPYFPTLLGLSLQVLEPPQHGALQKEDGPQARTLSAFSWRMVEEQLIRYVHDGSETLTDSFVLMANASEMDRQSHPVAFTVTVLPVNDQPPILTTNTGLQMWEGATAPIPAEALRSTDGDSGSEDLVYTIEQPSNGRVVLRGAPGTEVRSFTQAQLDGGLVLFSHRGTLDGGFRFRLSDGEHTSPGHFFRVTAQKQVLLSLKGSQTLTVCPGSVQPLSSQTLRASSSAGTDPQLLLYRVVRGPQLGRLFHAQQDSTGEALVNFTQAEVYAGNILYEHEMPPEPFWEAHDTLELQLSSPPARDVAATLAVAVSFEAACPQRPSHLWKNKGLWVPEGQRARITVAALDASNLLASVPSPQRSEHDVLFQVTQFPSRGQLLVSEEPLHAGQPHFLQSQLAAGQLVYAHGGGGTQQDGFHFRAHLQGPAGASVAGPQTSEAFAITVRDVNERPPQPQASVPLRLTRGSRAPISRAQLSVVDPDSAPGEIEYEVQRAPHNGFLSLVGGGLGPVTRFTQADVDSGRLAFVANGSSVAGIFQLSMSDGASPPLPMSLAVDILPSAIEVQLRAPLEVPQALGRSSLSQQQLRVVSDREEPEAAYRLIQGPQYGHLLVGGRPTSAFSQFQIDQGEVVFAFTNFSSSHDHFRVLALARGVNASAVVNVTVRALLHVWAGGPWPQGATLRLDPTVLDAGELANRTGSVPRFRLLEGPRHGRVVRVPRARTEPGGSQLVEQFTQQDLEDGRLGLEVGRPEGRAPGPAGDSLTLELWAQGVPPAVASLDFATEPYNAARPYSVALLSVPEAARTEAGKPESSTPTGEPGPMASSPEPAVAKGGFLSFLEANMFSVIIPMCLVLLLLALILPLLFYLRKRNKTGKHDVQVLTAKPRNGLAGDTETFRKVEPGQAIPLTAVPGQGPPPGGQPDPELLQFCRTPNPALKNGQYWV

[2] = biological target: T2, human CD3 expressed on Jurkat cells (human, UniProt P07766 23-207); test: flow cytometry on Jurkat cells
T2 construct: CD3 as part of the T cell receptor complex on Jurkat cells; also called huCD3; human CD3 on cells
T2 sequence (P07766 23-207 limits assumed): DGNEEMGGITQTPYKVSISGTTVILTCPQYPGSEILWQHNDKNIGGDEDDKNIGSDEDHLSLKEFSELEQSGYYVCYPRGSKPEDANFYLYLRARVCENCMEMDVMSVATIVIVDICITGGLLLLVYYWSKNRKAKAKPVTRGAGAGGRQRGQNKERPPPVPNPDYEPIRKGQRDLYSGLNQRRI

[3] = biological target: T1, human MCSP expressed on tumor cells …; test: flow cytometry on WM266-4 cells
[4] = biological target: T1, human MCSP expressed on tumor cells …; test: cell-based or functional assay; remark: listed apart in the source
[5] = biological target: T3, human CEA expressed on tumor cells (LS-174T, MKN-45, MC38-huCEA) (human, UniProt P06731 35-685); test: cell-based or functional assay
T3 sequence (looked up): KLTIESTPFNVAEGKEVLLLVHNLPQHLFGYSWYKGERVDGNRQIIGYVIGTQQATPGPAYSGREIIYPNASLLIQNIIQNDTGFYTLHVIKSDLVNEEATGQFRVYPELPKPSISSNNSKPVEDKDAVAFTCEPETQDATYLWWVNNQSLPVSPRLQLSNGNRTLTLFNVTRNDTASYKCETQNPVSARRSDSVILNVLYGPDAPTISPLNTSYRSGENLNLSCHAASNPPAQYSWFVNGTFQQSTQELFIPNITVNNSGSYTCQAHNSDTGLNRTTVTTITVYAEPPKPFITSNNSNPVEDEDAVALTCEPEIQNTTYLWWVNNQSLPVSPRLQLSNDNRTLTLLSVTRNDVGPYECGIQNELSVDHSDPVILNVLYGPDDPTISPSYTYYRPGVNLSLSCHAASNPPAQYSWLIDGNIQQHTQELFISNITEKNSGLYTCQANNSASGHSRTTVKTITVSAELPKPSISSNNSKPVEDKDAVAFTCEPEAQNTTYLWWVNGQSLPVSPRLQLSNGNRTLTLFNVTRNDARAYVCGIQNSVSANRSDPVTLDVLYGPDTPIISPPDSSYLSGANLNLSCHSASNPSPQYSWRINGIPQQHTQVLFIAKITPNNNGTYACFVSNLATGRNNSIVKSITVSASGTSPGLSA

Binder | EC50 [2] [nM] | EC50 [3] [nM] | EC50 [pM] of T cell-mediated killing (LDH release) of MV-3 cells, human PBMCs, E:T 10:1, about 24 h [4] [pM] | EC50 [pM] of T cell-mediated killing (LDH release) of WM266-4 cells, human PBMCs, E:T 10:1, about 24 h [4] [pM] | also measured
B1 |  |  |  |  | EC50 of killing (LDH release) of MV-3 cells, human PBMCs, E:T 10:1, 21 h [1]: 0.0409 nM; EC50 of killing (LDH release) of WM266-4 cells, human PBMCs, E:T 10:1, 21 h [1]: 0.0284 nM
B2 | 10.3 | 3.1 | 11 | 11.3 | 
B3 |  |  |  |  | EC50 of killing (LDH release) of MV-3 cells, human PBMCs, E:T 10:1, 27 h [1]: ~0.0822 nM; EC50 of killing (LDH release) of WM266-4 cells, human PBMCs, E:T 10:1, 26 h [1]: 0.0168 nM
B4 | 6.1 | 0.57 | 4.1 | 3.7 | 
B5 | 32 | 3.4 | 3 | 7.1 | 
B6 |  |  |  |  | EC50 of killing (LDH release) of MV-3 cells, human PBMCs, E:T 10:1, 21 h [1]: 0.0884 nM; EC50 of killing (LDH release) of WM266-4 cells, human PBMCs, E:T 10:1, 21 h [1]: 0.0539 nM
B7 |  |  |  |  | EC50 of apoptosis induction (LDH release) in LS-174T cells, human PBMCs, E:T 10:1, 28 h [5]: 1.56 nM; EC50 of apoptosis induction (LDH release) in MC38-huCEA cells, human PBMCs, E:T 10:1, 24 h [5]: ~3.2 nM; EC50 of apoptosis induction (LDH release) in MKN-45 cells, human PBMCs, E:T 10:1, 28 h [5]: 0.213 nM
B8 |  |  |  |  | EC50 of killing (LDH release) of MV-3 cells, human PBMCs, E:T 10:1, 27 h [1]: ~0.0117 nM; EC50 of killing (LDH release) of WM266-4 cells, human PBMCs, E:T 10:1, 26 h [1]: 0.0129 nM
